# Source: patent US20170044259A1 (CYTOMX THERAPEUTICS, published 2017)
# Substitutions are numbered along the chain they refer to. In names and notes the source's numbering stands.
# B1: D4 (antibody, human IgG4 S228P, kappa, V domains shown)
# VH: EVQLVESGGGLVQPGGSLRLSCAHSGFSFSSYDMSWVRQAPGKGLEWVATISGGGRYTYYADSVKGRFTISRDNSKNTLYLQMNSLRAEDTAVYYCASNYYGFDYWGQGTLLTVSS
# VL: DIQMTQSPSSLSASVGDRVTITCKASQDVGTAVAWYQQKPGKAPKLLIYWASTRHTGVPSRFSGSGSGTDFTLTISSVQPEDFATYYCQQYSSYPWTFGQGTKLEIKR
# notes: humanized, full length hIgG4/hKappa
# B2: A1.0 (antibody, human IgG4 S228P, kappa, V domains shown)
# VH: EVQLVESGGGLVQPGGSLRLSCAASGFTFSGYAMSWVRQAPGKGLEWVAYISNSGGNAHYADSVKGRFTISRDNSKNTLYLQMNSLRAEDTAVYYCTREDYGTSPFVYWGQGTLVTVSS
# VL: DIQLTQSPSSLSASVGDRVTITCRASESVDNYGISFMNWFQQKPGKAPKLLIYAASNQGSGVPSRFSGSGSGTDFTLTISSMQPEDFATYYCQQSKDVPWTFGQGTKLEIKR
# notes: as for B1
# B3: A1.6 (antibody, human IgG4 S228P, kappa, V domains shown)
# VH: B2 VH
# VL: B2 VL with N57D
# notes: as for B1
# B4: A1.2 (antibody, human IgG4 S228P, kappa, V domains shown)
# VH: B2 VH
# VL: B2 VL with N31Q
# notes: as for B1
# B5: A1.4 (antibody, human IgG4 S228P, kappa)
# heavy: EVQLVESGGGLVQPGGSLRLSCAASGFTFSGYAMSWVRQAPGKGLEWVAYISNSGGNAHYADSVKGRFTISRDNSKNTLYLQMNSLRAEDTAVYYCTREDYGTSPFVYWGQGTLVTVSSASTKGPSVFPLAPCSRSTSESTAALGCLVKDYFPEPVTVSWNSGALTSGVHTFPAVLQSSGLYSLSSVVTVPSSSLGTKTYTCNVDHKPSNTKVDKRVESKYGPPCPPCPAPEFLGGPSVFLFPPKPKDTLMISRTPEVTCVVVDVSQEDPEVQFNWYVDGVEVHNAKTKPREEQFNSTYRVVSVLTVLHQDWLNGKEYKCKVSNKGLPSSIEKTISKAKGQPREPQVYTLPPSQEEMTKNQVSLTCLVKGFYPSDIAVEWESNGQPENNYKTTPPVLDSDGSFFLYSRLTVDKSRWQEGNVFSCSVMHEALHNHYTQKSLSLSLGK
# light: DIQLTQSPSSLSASVGDRVTITCRASESVDSYGISFMNWFQQKPGKAPKLLIYAASNQGSGVPSRFSGSGSGTDFTLTISSMQPEDFATYYCQQSKDVPWTFGQGTKLEIKRTVAAPSVFIFPPSDEQLKSGTASVVCLLNNFYPREAKVQWKVDNALQSGNSQESVTEQDSKDSTYSLSSTLTLSKADYEKHKVYACEVTHQGLSSPVTKSFNRGEC
# notes: humanized, full length hIgG4/hKappa; also called anti-PD-1 A1.4; DyLight-650 A1.4
# B6: C1.1 (antibody, human IgG4 S228P, kappa, V domains shown)
# VH: B2 VH with G31N, S54G, N57D, A58T, V64L, I70V, T97A, D100N
# VL: B2 VL with A13V, V19A
# notes: as for B1
# B7: Bb2 (antibody, human IgG4 S228P, kappa, V domains shown)
# VH: QVQLVQSGAEVKKPGASVKMSCKASGYTFTDYYMDWVRQAPGQGLEWIGYIYPKNGGSSYAQKFQGRATLTVDKSTSTAYMELSSLRSEDTAVYYCARKVVATDYWGQGTLLTVSS
# VL: DIQMTQSPSSLSASVGDRVTMTCKSSQSLLYSSNQKNYLAWYQQKPGKAPKLLIFWASIRESGVPSRFSGSGSGTDFTLTISSVQPEDFATYYCQQSDSYPWTFGQGTKLEIKR
# notes: as for B1
# B8: PD-1 1.5 PD006 2001 (antibody, human IgG4 S228P, kappa)
# heavy: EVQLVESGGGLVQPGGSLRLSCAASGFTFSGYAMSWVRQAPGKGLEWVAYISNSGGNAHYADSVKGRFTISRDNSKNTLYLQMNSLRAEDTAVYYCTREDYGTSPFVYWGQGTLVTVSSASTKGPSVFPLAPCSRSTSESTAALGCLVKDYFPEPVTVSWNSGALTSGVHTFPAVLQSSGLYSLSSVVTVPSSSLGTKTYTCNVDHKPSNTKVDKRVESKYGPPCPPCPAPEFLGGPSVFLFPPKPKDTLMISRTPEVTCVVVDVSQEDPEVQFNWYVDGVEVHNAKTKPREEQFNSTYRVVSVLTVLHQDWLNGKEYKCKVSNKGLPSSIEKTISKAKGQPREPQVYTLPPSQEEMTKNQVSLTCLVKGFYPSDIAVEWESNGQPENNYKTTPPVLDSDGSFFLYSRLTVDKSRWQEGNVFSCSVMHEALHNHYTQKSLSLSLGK
# light: QGQSGQGAPRCYMFASYCKSQYGGGSSGGSISSGLLSGRSDNHGGGSDIQLTQSPSSLSASVGDRVTITCRASESVDAYGISFMNWFQQKPGKAPKLLIYAASNQGSGVPSRFSGSGSGTDFTLTISSMQPEDFATYYCQQSKDVPWTFGQGTKLEIKRTVAAPSVFIFPPSDEQLKSGTASVVCLLNNFYPREAKVQWKVDNALQSGNSQESVTEQDSKDSTYSLSSTLTLSKADYEKHKVYACEVTHQGLSSPVTKSFNRGEC
# B9: PD-1 1.5 PD012 2001 (antibody, human IgG4 S228P, kappa)
# heavy: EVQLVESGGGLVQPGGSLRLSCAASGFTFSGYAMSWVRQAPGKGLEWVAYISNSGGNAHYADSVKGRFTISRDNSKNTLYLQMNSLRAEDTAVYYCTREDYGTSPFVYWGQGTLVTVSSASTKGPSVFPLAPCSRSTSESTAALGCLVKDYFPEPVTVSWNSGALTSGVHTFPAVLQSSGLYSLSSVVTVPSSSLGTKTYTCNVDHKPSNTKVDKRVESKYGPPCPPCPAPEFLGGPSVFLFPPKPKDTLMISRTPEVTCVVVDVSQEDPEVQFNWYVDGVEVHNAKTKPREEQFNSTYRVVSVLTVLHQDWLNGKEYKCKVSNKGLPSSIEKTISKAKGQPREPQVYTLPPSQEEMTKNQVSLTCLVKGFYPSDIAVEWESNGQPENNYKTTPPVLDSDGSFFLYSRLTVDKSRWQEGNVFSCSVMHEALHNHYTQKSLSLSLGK
# light: QGQSGQGNWLDCQFYSECSVYGGGGSSGGSISSGLLSGRSDNHGGGSDIQLTQSPSSLSASVGDRVTITCRASESVDAYGISFMNWFQQKPGKAPKLLIYAASNQGSGVPSRFSGSGSGTDFTLTISSMQPEDFATYYCQQSKDVPWTFGQGTKLEIKRTVAAPSVFIFPPSDEQLKSGTASVVCLLNNFYPREAKVQWKVDNALQSGNSQESVTEQDSKDSTYSLSSTLTLSKADYEKHKVYACEVTHQGLSSPVTKSFNRGEC
# notes: also called PD-12
# B10: PD-1 1.5 PD009 2001 (antibody, human IgG4 S228P, kappa)
# heavy: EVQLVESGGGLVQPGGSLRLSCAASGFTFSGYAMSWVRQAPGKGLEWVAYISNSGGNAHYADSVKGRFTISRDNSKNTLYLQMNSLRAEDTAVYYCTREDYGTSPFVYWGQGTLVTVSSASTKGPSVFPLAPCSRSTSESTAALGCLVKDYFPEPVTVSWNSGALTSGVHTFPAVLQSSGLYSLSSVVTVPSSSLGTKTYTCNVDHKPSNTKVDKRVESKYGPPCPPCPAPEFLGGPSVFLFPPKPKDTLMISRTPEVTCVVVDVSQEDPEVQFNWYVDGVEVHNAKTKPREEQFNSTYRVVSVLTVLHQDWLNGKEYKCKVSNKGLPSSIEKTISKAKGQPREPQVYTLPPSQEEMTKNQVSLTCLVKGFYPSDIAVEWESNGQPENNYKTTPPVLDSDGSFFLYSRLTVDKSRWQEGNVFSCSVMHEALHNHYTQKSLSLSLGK
# light: QGQSGQGAPRTCYTYQCSSFYTGGGSSGGSISSGLLSGRSDNHGGGSDIQLTQSPSSLSASVGDRVTITCRASESVDAYGISFMNWFQQKPGKAPKLLIYAASNQGSGVPSRFSGSGSGTDFTLTISSMQPEDFATYYCQQSKDVPWTFGQGTKLEIKRTVAAPSVFIFPPSDEQLKSGTASVVCLLNNFYPREAKVQWKVDNALQSGNSQESVTEQDSKDSTYSLSSTLTLSKADYEKHKVYACEVTHQGLSSPVTKSFNRGEC
# B11: PD-1 1.5 PD017 2001 (antibody, human IgG4 S228P, kappa)
# heavy: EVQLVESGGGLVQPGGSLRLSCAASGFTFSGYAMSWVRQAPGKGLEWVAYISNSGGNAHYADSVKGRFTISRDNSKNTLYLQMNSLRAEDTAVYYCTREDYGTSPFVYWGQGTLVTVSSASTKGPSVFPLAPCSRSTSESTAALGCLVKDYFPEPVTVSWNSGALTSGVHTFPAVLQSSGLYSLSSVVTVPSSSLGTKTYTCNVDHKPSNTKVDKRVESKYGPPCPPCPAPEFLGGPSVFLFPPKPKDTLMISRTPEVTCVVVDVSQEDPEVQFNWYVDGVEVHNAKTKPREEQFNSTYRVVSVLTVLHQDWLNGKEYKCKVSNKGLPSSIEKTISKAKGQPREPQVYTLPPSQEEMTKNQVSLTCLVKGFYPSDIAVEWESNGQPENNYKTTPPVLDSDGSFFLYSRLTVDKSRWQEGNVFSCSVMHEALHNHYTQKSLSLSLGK
# light: QGQSGQGTTCNLYQQSSMFCNAGGGSSGGSISSGLLSGRSDNHGGGSDIQLTQSPSSLSASVGDRVTITCRASESVDAYGISFMNWFQQKPGKAPKLLIYAASNQGSGVPSRFSGSGSGTDFTLTISSMQPEDFATYYCQQSKDVPWTFGQGTKLEIKRTVAAPSVFIFPPSDEQLKSGTASVVCLLNNFYPREAKVQWKVDNALQSGNSQESVTEQDSKDSTYSLSSTLTLSKADYEKHKVYACEVTHQGLSSPVTKSFNRGEC
# notes: also called PD-17
# B12: PD-1 1.5 PD019 2001 (antibody, human IgG4 S228P, kappa)
# heavy: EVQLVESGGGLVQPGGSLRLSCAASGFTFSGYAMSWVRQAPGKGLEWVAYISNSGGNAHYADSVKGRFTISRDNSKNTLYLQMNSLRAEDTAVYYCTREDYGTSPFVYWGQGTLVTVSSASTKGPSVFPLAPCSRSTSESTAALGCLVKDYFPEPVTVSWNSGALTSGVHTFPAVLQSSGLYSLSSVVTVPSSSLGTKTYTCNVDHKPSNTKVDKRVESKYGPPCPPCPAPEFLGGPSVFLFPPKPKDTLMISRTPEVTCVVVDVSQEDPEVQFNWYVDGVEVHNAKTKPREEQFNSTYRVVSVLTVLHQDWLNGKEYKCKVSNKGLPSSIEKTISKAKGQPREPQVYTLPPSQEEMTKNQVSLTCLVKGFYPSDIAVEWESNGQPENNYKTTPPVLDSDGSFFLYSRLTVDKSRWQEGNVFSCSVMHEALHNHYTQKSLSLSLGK
# light: QGQSGQGPCDQNPYFYPYVCHAGGGSSGGSISSGLLSGRSDNHGGGSDIQLTQSPSSLSASVGDRVTITCRASESVDAYGISFMNWFQQKPGKAPKLLIYAASNQGSGVPSRFSGSGSGTDFTLTISSMQPEDFATYYCQQSKDVPWTFGQGTKLEIKRTVAAPSVFIFPPSDEQLKSGTASVVCLLNNFYPREAKVQWKVDNALQSGNSQESVTEQDSKDSTYSLSSTLTLSKADYEKHKVYACEVTHQGLSSPVTKSFNRGEC
# notes: also called PD-19
# B13: PD-1 1.4 PD003 2001 (antibody, human IgG4 S228P, kappa)
# heavy: not shown
# light: B11 light with T8L, T9V, N11P, Q14A, Q15L, M18G, F19V, N21M, A22G, A78S
# notes: also called PD03 (A1.4)
# B14: PD-1 1.4 PD008 2001 (antibody, human IgG4 S228P, kappa)
# heavy: not shown
# light: B11 light with T8E, L12Q, Q14E, Q15R, M18G, F19L, N21F, A78S
# notes: also called PD08 (A1.4)
# B15: PD-1 1.4 PD010 2001 (antibody, human IgG4 S228P, kappa)
# heavy: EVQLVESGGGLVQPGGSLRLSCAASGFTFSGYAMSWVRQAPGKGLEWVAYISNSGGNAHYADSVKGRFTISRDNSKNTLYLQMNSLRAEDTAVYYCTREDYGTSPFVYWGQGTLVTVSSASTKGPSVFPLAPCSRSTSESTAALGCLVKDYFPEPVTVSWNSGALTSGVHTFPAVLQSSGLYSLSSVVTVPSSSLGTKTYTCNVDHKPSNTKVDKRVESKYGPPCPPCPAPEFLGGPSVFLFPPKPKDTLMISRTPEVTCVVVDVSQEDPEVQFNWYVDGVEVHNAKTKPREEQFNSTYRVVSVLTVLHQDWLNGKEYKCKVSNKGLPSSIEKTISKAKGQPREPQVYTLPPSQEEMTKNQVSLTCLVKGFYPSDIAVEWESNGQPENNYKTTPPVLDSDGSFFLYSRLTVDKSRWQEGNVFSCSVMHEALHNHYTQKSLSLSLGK
# light: QGQSGQGGLCSWYLSSSGLCVDGGGSSGGSISSGLLSGRSDNHGGGSDIQLTQSPSSLSASVGDRVTITCRASESVDSYGISFMNWFQQKPGKAPKLLIYAASNQGSGVPSRFSGSGSGTDFTLTISSMQPEDFATYYCQQSKDVPWTFGQGTKLEIKRTVAAPSVFIFPPSDEQLKSGTASVVCLLNNFYPREAKVQWKVDNALQSGNSQESVTEQDSKDSTYSLSSTLTLSKADYEKHKVYACEVTHQGLSSPVTKSFNRGEC
# notes: also called PD-10 (A1.4); PD10 (A1.4)
# B16: PD-1 1.4 PD001 2001 (antibody, human IgG4 S228P, kappa)
# heavy: not shown
# light: QGQSGQGAMSGCSWSAFCPYLAGGGSSGGSISSGLLSGRSDNHGGGSDIQLTQSPSSLSASVGDRVTITCRASESVDSYGISFMNWFQQKPGKAPKLLIYAASNQGSGVPSRFSGSGSGTDFTLTISSMQPEDFATYYCQQSKDVPWTFGQGTKLEIKRTVAAPSVFIFPPSDEQLKSGTASVVCLLNNFYPREAKVQWKVDNALQSGNSQESVTEQDSKDSTYSLSSTLTLSKADYEKHKVYACEVTHQGLSSPVTKSFNRGEC
# notes: hIgG4 S228P/hK; also called PD01 (A1.4)
# B17: PD-1 1.5 PD028 2001 (antibody, human IgG4 S228P, kappa)
# heavy: not shown
# light: B8 light with A8F, P9Q, R10P, Y12L, Y17S, K19F, S20T, Q21S, Y22K
# B18: A1.5 PD34 2001 (antibody, human IgG4 S228P, kappa)
# heavy: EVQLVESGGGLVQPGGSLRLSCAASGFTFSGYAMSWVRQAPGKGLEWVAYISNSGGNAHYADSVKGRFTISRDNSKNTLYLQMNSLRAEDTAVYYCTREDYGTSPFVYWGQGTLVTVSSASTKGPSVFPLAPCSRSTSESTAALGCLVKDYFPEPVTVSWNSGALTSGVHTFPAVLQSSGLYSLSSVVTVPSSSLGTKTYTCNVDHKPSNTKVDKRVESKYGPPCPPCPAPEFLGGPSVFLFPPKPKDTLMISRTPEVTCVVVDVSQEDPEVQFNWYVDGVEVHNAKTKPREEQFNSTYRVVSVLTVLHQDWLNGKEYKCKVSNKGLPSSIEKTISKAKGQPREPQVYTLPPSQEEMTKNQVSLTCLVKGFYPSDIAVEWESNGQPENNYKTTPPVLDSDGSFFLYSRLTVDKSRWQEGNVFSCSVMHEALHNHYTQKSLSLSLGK
# light: QGQSGQGTSYCSIEHYPCNTHHGGGSSGGSISSGLLSGRSDNHGGGSDIQLTQSPSSLSASVGDRVTITCRASESVDAYGISFMNWFQQKPGKAPKLLIYAASNQGSGVPSRFSGSGSGTDFTLTISSMQPEDFATYYCQQSKDVPWTFGQGTKLEIKRTVAAPSVFIFPPSDEQLKSGTASVVCLLNNFYPREAKVQWKVDNALQSGNSQESVTEQDSKDSTYSLSSTLTLSKADYEKHKVYACEVTHQGLSSPVTKSFNRGEC
# notes: also called PD-1 1.5 PD034 2001; PD1 1.5 PD34 2001
# B19: PD-1 1.5 PD026 2001 (antibody, human IgG4 S228P, kappa)
# heavy: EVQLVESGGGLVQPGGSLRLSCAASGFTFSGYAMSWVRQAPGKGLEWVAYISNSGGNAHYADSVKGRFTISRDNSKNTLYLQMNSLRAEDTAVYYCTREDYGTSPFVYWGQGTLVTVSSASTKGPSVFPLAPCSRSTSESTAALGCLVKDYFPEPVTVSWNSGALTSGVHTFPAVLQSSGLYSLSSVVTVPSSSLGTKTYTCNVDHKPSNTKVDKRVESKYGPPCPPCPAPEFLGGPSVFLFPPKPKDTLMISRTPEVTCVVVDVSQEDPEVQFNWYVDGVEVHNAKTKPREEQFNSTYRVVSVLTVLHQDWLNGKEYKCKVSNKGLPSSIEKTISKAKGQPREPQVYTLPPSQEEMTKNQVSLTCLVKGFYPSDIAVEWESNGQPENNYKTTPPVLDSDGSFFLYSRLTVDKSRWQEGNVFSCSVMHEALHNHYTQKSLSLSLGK
# light: B15 light with L9M, W12A, L14A, S15Y, G18K, V21T, D22I, S78A
# B20: PD-1 1.5 PD025 2001 (antibody, human IgG4 S228P, kappa)
# heavy: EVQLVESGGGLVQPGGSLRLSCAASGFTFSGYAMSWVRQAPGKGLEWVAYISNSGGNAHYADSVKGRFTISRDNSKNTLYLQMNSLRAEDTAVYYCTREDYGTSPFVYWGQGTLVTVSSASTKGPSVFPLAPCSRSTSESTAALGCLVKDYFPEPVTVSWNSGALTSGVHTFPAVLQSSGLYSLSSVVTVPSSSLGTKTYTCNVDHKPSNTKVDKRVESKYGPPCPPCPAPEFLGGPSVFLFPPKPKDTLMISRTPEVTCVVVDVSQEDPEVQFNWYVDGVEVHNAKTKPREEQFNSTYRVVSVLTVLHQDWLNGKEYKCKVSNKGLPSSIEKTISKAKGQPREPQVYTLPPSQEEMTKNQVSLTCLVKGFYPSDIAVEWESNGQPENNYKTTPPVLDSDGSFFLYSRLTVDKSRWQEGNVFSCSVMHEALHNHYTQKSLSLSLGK
# light: B15 light with G8S, L9R, W12V, L14E, S15V, V21D, D22W, S78A
# Target: T1, human PD-1-Fc (R and D systems, Minneapolis, Minn.) (human, UniProt Q15116 25-167)
# T1 construct: bought; also called hPD-1-Fc; hPD-1; not shown: Fc part of the bought fusion
# T1 sequence (Q15116 25-167 limits assumed): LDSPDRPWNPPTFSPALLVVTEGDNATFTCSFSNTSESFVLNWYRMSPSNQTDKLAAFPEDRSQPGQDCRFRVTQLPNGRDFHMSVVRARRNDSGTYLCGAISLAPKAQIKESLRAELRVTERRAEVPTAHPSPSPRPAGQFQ
# Assay: plate ELISA on human PD-1-Fc
row,Binder,binding result
1,B1,binds
2,B2,binds
3,B3,binds
4,B4,binds
5,B5,binds
6,B6,binds
7,B7,binds

# Target: T2, pembrolizumab
# T2 construct: also called PM1; PM1 AB
# T2 sequence (VH, as listed by the source, chain 1 of 2): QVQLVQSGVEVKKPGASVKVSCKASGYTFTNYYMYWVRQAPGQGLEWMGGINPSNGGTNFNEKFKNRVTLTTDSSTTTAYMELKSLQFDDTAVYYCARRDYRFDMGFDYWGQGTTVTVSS
# T2 sequence (VL, as listed by the source, chain 2 of 2): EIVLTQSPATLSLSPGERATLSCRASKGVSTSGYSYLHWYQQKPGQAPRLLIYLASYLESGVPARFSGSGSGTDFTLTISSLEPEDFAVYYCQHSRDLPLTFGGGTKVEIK
# Assay: bacterial display clone with labeled PM1
row,Binder,binding result
1,ISHYCFSGKSCRD (bacterial display clone) [masking moiety PM11],binds
2,HCIPDFTSAAGDCMR (bacterial display clone) [masking moiety PM12],binds

# Target: T1, human PD-1-Fc (R and D systems, …)
# Assay: plate ELISA on human PD-1-Fc; apparent KD
# Protocol: (§1) Masking efficiencies were evaluated by standard plate ELISA. Briefly, human PD-1-Fc (Rand D systems, Minneapolis, Minn.) was adsorbed to the wells of a 96-well ELISA plate. Purified anti-PD-1 antibodies and activatable antibodies were applied to the plate in serial dilution and allowed to bind. Bound antibody and activatable antibodies were detected with anti-human IgG-HRP conjugate, FAb-specific (Sigma, St Louis, Mo.) and visualized with the chromogenic substrate TMB (Thermo Scientific, Rockford, Ill.). […] Plots were generated in Prizm (Sigma Plot); the data were fit to a model of single site saturation binding, and the equilibrium dissociation constant, Kd, was determined. Masking efficiency was calculated by dividing the Kd for binding of the activatable antibodies by the Kd of the parental antibody.
row,Binder,Kd
1,B8,71 nM
2,B9,25 nM
3,B10,10 nM
4,B11,22 nM
5,B12,93 nM

# Target: T1, human PD-1-Fc (R and D systems, …)
# Assay: plate ELISA on human PD-1-Fc; reference A1.4
# Protocol: as §1
row,Binder,"ME (masking efficiency, Kd of the activatable antibody divided by Kd of the parental antibody)"
1,B13,5
2,B14,13
3,B15,13
4,B16,25

# Target: T1, human PD-1-Fc (R and D systems, …)
# Assay: plate ELISA on human PD-1-Fc; reference A1.5
# Protocol: as §1
row,Binder,"ME (masking efficiency, Kd of the activatable antibody divided by Kd of the parental antibody)"
1,B8,30
2,B17,25
3,B18,42
4,B9,10
5,B10,2
6,B19,20
7,B20,30
8,B11,20
9,B12,30

# Target: T1, human PD-1-Fc (R and D systems, …)
# Assay: plate ELISA on human PD-1-Fc; reference A1.5
# Remark: another data set of the same source
# Protocol: as §1
row,Binder,Masking Efficiency
1,B8,39
2,B9,14
3,B10,6
4,B11,12
5,B12,52
